The source of these data is paper PMC6286387, “Physical and thermodynamic characterization of the rice gibberellin receptor/gibberellin/DELLA protein complex” (Scientific Reports, 2018).

By stoichiometry N is commonly meant the number of molecules, sites or subunits per partner or assembly.

The target of series [1] is SLR1(M1-E104), Trx-free (rice (Oryza sativa)) (UniProt Q7G7J6). Description: ITC; 10 μl aliquants of 400 μM OsGID1/GA3 into 1.4482 ml of 50 μM SLR1 variant, 30 °C, 20 mM sodium phosphate (pH 7.5), 150 mM NaCl, 2.0 mM β-ME, 0.1 mM GA3. Background: In ITC the heat of successive injections is recorded.
Series [2] deals with the molecule itself. Description: SAXS; Trx-free proteins, about 3.0 mg/ml, 20 mM sodium phosphate (pH 7.5), 150 mM NaCl, 2.0 mM β-ME, 0.1 mM GA3, 25 °C; mass from I(0), Guinier and Kratky plots.
Series [3] concerns the target T1, SLR1(M28-A112), Trx-free (rice (Oryza sativa), UniProt Q7G7J6 28-112).
T1 construct: DELLA protein SLR1 of rice (Oryza sativa), residues M28-A112; 13C/15N-labelled for the NMR spectra; also called SLR(M28-A112); source: E. coli, purified (HiTrap Chelating, Superdex 200; thrombin, HiTrap Chelating, Superdex 75); not shown: Trx, N-terminal, cleaved; His6, N-terminal, cleaved
T1 sequence (looked up): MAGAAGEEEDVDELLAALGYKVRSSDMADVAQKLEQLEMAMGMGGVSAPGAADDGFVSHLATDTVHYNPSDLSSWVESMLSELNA
The description is as above. The conditions noted are these: both partners purified.

The target of series [4] is T2, SLR1(M1-A172) (rice (Oryza sativa), UniProt Q7G7J6 1-172).
T2 construct: DELLA protein SLR1 of rice (Oryza sativa), residues M1-A172; Named without Trx in the ITC experiments; removal of the tag is told in general in the methods; also called SLR(M1-A172); source: E. coli, purified (HiTrap Chelating, Superdex 200; thrombin, HiTrap Chelating, Superdex 75); not shown: Trx, N-terminal, cleaved; His6, N-terminal, cleaved
T2 sequence (looked up): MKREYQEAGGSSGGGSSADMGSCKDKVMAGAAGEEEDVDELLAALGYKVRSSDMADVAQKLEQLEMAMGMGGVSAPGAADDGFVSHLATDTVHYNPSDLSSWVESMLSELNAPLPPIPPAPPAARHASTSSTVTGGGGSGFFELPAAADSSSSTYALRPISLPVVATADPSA
Description: ITC; 10 μl aliquants of 400 μM OsGID1/GA3 into 1.4482 ml of 50 μM SLR1 variant, 30 °C, 20 mM sodium phosphate (pH 7.5), 150 mM NaCl, 2.0 mM β-ME, 0.1 mM GA3. The conditions noted are these: both partners purified.

The target of series [5] is T3, SLR1(M1-H327) (rice (Oryza sativa), UniProt Q7G7J6 1-327).
T3 construct: DELLA protein SLR1 of rice (Oryza sativa), residues M1-H327; Named without Trx in the ITC experiments; removal of the tag is told in general in the methods; also called SLR(M1-H327); source: E. coli, purified (HiTrap Chelating, Superdex 200; thrombin, HiTrap Chelating, Superdex 75); not shown: Trx, N-terminal, cleaved; His6, N-terminal, cleaved
T3 sequence (looked up): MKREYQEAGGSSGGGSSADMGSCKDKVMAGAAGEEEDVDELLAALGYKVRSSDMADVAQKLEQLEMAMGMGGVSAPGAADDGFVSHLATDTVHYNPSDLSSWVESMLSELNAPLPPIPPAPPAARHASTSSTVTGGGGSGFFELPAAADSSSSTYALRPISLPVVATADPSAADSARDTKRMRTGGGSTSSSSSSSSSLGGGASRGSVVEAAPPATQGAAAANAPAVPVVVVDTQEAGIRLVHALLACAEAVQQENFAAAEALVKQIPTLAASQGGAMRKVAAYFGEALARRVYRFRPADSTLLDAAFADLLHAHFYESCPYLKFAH
The series is described as above. The conditions noted are these: both partners purified.

Series [6] concerns the target T4, SLR1(M28-A112) ΔSPACE(G69-F83) (rice (Oryza sativa), UniProt Q7G7J6 28-112, ΔSPACE(G69-F83)).
T4 construct: DELLA protein SLR1 of rice (Oryza sativa), residues M28-A112 with G69-F83 deleted; Named without Trx in the ITC experiments; removal of the tag is told in general in the methods; also called SLR(M28-A112)ΔSPACE; source: E. coli, purified (HiTrap Chelating, Superdex 200; thrombin, HiTrap Chelating, Superdex 75); not shown: Trx, N-terminal, cleaved; His6, N-terminal, cleaved
T4 sequence (looked up): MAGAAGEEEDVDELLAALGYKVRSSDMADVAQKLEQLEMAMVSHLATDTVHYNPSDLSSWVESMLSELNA
Described as above. As to conditions: both partners purified.

Series [7] concerns the target T1, SLR1(M28-A112), Trx-free. The series is described as above. As to conditions: both partners purified.
Series [8] deals with T1, SLR1(M28-A112), Trx-free. Described as above. As to conditions: both partners purified. This is another data set of the same source.

B1: OsGID1 (rice gibberellin receptor GID1), Trx-free, used as the OsGID1/GA3 complex (receptor, rice (Oryza sativa), UniProt Q6L545 1-354, looked up)
chain: MAGSDEVNRNECKTVVPLHTWVLISNFKLSYNILRRADGTFERDLGEYLDRRVPANARPLEGVSSFDHIIDQSVGLEVRIYRAAAEGDAEEGAAAVTRPILEFLTDAPAAEPFPVIIFFHGGSFVHSSASSTIYDSLCRRFVKLSKGVVVSVNYRRAPEHRYPCAYDDGWTALKWVMSQPFMRSGGDAQARVFLSGDSSGGNIAHHVAVRAADEGVKVCGNILLNAMFGGTERTESERRLDGKYFVTLQDRDWYWKAYLPEDADRDHPACNPFGPNGRRLGGLPFAKSLIIVSGLDLTCDRQLAYADALREDGHHVKVVQCENATVGFYLLPNTVHYHEVMEEISDFLNANLYY
notes: Gibberellin receptor GID1 of rice (Oryza sativa); theoretical MW of the dimer printed as 79.2 kDa; The printed mass (39.6 kDa a monomer) fits the whole protein; source: recombinant, purified
For B1, the Ka in series [1] amounted to 11000 M⁻¹. In addition, the dH in series [1] was -8.4 kcal/mol; in series [4] it was -6.8 kcal/mol; in series [5] it was -7.1 kcal/mol; in series [6], -8.3 kcal/mol; in series [7] it was -6.9 kcal/mol; in series [8], -8.44 kcal/mol. Besides, the stoichiometry N in series [1] was 1; in series [2] it was 2; in series [3], 1; in series [4], 1.06; in series [5] it was 1.01; in series [6], 0.5. Besides, the “stoichiometry N” value turned out to be 1.06 in series [7] and 0.92 in series [8].
